According to publication PMC4368477:
pKd: −log10 of the molar value.

Target: HA head of H1N1 A/Solomon Islands/3/2006 (Influenza A virus, A/Solomon Islands/3/2006 (H1N1))
Assay: BLI

## CH65 Fab with light-chain reversion R29S
  pKd: 5.92

## CH67 Fab with light-chain reversion R29S
  pKd: 6.43
  koff: 0.019 s⁻¹
  kon: 52000 M⁻¹ s⁻¹

## CH67 Fab with light-chain reversions D33H and R31S
  pKd: 5.82
  koff: 0.067 s⁻¹
